# Assay: label from the status in PepcDB records
# 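Also: failed if final PepcDB status was selected cloned or expressed and not failed if soluble or beyond.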
row,Sequence,protein production
1,MEYVAFSVAVIILLGLLFNRVFTRARLPGILGMLILGILIGPHGLNLISKSIMDISPDLRVIALIIILLRAGFGINLESLRKVGMTAVKMSFIPDVFEGLAVMVASHYILGLPIIEAGILGFVIAAVSPAVIVPQMLSFIERRMGTAKGIPTIILTGASVDDVVSITLFSVFLGIYQGQQVNLLVEAIGVPLSILTGITGGLALGLALVYLFRRFEIRNTEKTLIILGAAILLKNMGDLISTYLPIAALVGVMVVGLVILERMPETGLKLSEKFNKVWIFAEILLFVLVGAQVDVRLIFHVGLLGLAVITAGLMVRSIGVLLSLKGTDLNLKEKVFCISAYIPKATVQAAIGAIPLAAGVAAGETILAMAVLAILFTAPLGSLAVKWTGERFLEVERGN,failed
2,MGSDVHVWKTWFITSSDRGFTWSTPAPLVNDDILPRGPVKNKLLLASNGAWIAPGSIESPERWRAFVDRSSDEGKHWSISFVPLEPDNAISGTNVALWDGIKKGRLWECCLENLLRWDGVIQPTLWESSPGHIHMLLRSTRGAIFRSDSIDYGATWSVARATSLPNNNSGIDLVSMQDGTLILALNPVNGNWGKRYPLSLIASQDNGESWLPLLDLESDHGEYSYPAIISEGGIVHITYTWNRKLEHHHHHH,not failed
3,MAANVSGAKSCPANFLAAADDKLSGFQGDFLWPILVVEFLVAVASNGLALYRFSIRKQRPWHPAVVFSVQLAVSDLLCALTLPPLAAYLYPPKHWRYGEAACRLERFLFTCNLLGSVIFITCISLNRYLGIVHPFFARSHLRPKHAWAVSAAGWVLAALLAMPTLSFSHLKRPQQGAGNCSVARPEACIKCLGTADHGLAAYRAYSLVLAGLGCGLPLLLTLAAYGALGRAVLRSPGMTVAEKLRVAALVASGVALYASSYVPYHIMRVLNVDARRRWSTRCPSFADIAQATAALELGPYVGYQVMRGLMPLAFCVHPLLYMAAVPSLGCCCRHCPGYRDSWNPEDAKSTGQALPLNATAAPKPSEPQSRELSQ,failed
4,MMKNMILPIAFTALIASMTACSDETDPILTQKNWDGTATYFQSSDEHGFSMYYKPQVGFVGDPMPFYDPVAKDFKVMYLQDYRPNPEATYHPIFGVATKDGATYESLGELISCGGRDEQDAAIGTGGTIYNPADKLYYTFYTGNKFKPSSDQNAQVVMVATSPDFKTWTKNRTFYLKGDTYGYDKNDFRDPFLFQTEDGVYHMLIATRKNGKGHIAEFTSADLKEWESAGTFMTMMWDRFYECPDVFKMGDWWYLIYSEQASFMRKVQYFKGRTLEDLKATTANDAGIWPDNREGMLDSRAFYAGKTASDGTNRYIWGWCPTRAGNDNGNVGDVEPEWAGNLVAQRLIQHEDGTLTLGVPDAIDRKYTSAQEVKVMAKDGNMIESGKTYTLGEGASVIFNRLKVHNKISFTVKTASNTDRFGISFVRGTDSASWYSIHVNADEGKANFEKDGDDAKYLFDNKFNIPADNEYRVTIYSDQSVCVTYINDQLSFTNRIYQMQKNPWSLCCYKGEITVSDVQVSTY,failed
5,MTQTTPQPDPSRLRDELVRLHGKASPEWDSLVRLDPRFVDAYLKFAGVPQRRNHLDDKTRAFIALAADACATQLYAPGVARHIERALSFGATREELIEVLELVSTIGIHTSNVGVPVLLEVLEEEGLRKGAPPLDERRQKLKAEFETNRGYWHPTWEGLLELDPDLFEAYVEFSSVPWRTGVLSPKIKEFMYCAFDASATHLYVPGLKLHIRNALRYGATAEELMELLEIVSVTGIHGAELGAPLLEAALKRSGAAAGEPHA,not failed
6,XRKPILAALTLAGLGLAQEFITIGSGSTTGVYFPVATGIAKLVNDANVGIRANARSTGGSVANINAINAGEFEXALAQNDIAYYAYQGCCIPAFEGKPVKTIRALAALYPEVVHVVARKDAGIRTVADLKGKRVVVGDVGSGTEQNARQILEAYGLTFDDLGQAIRVSASQGIQLXQDKRADALFYTVGLGASAIQQLALTTPIALVAVDLNRIQAIAKKYPFYVGFNIPGGTYKGVDVTTPTVAVQAXLIASERLSEETVYKFXKAVFGNLEAFKKIHPNLERFFGLEKAVKGLPIPLHPGAERFYKEAGVLK,not failed
7,MSKNYQVLAKKIIDIVGVDNVESVTHCQTRLRFVVKDPKQIDKAALEDLDEVKGVFFGSGQYQVIIGTGVVNDVYDAIEKLHLVNAIYSQETTTTPTPDNQKSPLQRFMAMLSGIFIPIIPVIAATGLFLGLQSALTNNQVLQLFGTSSAAIPASLNTVISVLTGTVFSFLPALIVWSTFRYFKGTPIVGIVIGLMLVSPSLPNAYSVAGGTAKAIMLFDRIPVIGSQGSVLTALVAGFLGSKLEHYFHKHVPNVLDQILTPFLTMLVTFGIMILGVGPVVHWIENVMISGVEGLINLPFGIGGFLIGAAYPLMVLVGIHQMMIAIETSLLAATKLNPLITLEAMYGFANLGVALAMILRAKSQKAKANFIGAFSSQLFGVSEPTLFGVLIRYNFKPLVVTVLTSGIGAGVLSVMSVAANSYGLAVVPSYLMYIYNVRDLLIYTVVSLLTVAVAFIATNMFAIPKDILKSDQVQPKIVDDTIFSPVSGKSIALSTVNDPVFASKMMGDGIAIKPQEQGPVKVYAPQSGQMSVVADTGHAYGLTTNNGVELLIHIGIDTVSLKGQGFKVIVKPGQTVQKGDLLGEFDSTVLKAANLDDTVMVIVTNSKNYQRIESEPNQSIQSGAALLAIQGRPEMTTATAS,failed
8,MNAQLQYQIEQFFYRKSELCDAQDWDAYLQLFAVDSEFHLPQWDSEHVYTRDPKREMSLIYYANRSGLEDRVFRLRTGKAASTIPMPRTLHMVSNLRIAEGDNGLLRVRLNWHTLFYRLATSEEFYGHATYDLKPQGDSWLIQRKHVLLLNDTINSVLDFYHL,failed
9,MRKIFLACPYSHADAEVVEQRFRACNEVAATIVRAGHVVFSQVSMSHPINLCLAELDRAAIGRLWAPVDAFYMDHLEELIVLDLPGWRDSAGIRREMEFFEAGGQRVSLWSEVEHEFR,not failed
10,MEIFILIGLIVLNGLFAMSEIAIVTARKSRLTALAHAGSSTAKAALKLAEDPTQFLSTVQIGITSIGILNGIFGESILAEPLSLWLQTFGLSPDVTNIFSTVLVVIIVTYVSIVIGELVPKRIGQVSAESIACIMAKPMVFLAIATKPFVWMLSGSTHALMRLMGFSHRLDDNVTQEDIQAMLQEGSSAGVIEHNEHAMVKNVFRLDERTISSLMVPRSDIVFLDLNLPLDANLRTVMQSPHSRFPVCRNNVDDMVGIISAKQLLSESIAGERLELVDLVKNCNFVPNSLSGMELLEHFRTTGSQMVFVVDEYGDLKGLVTLQDMMDALTGEFFQEDVNDQMVIKREDGSLLLDGLIPIFDLKDALGIKQLPNEEDGRYQTLNGFLMYELGKIPQTTDIVEVAGWRLEIMDMDGKRVDKVLAQKLPDAEDSEESIFVDL,failed
11,MAEKRTLIAVIADEDTTTGLLLAGIGQITPETQEKNFFVYQEGKTTKEEITDKFNHFTEERDDIAILLINQHIAENIRARVDSFTNAFPAILEIPSKDHPYDPEKDSVLKRVRKLFGE,failed
12,MELNAVKSSYARWAPIYDKTFGAITNVGRHAAVDYINAHDATELLEVGVGTGLSLPNYRPGLKVTGIDFSEEMLAKARAKVESLGLGHVQSLRQMDARDLDFADASFDVVAAMHIISVVPEPERVMAEMARVCKPGGLIVITNHFARDSGMLARVERFAAPFANLLGWHPDFEISSVLKQPLEHHHHHH,failed
13,MRWRSSRLGRAPLLGALAILWFAVLLPRGGTAGAGPGARGIRRSTGVCAGSRPRPAALLRRSAKVVAGFSVFGCPATAFESCVLSPAPSNSLASVFLLCLLPGLMEETIHTVSTEAFALQAEDPDHTILDVRPIAAYNGWPLQDESRSGHVPGAKSLPLQWTQYMDWVEVLDEKGLSQNAPVTVYGYTADAAAEMADKLSRLGFEAVGVYDGFLEDWAPDPDRPLQRMERYQQLVYPEWVQRLRTGETPPGMRGDDHVLCHAHFGYRQDYEDGHIPGAIPLNTNALESPETWNRRSPEELKSALEDHGIRHDTTVVLYGRFSYPTYDQDDPAQSAGHLGAMRCAALMLYAGVEDVKILNGGISTWESAGYDVSTDDVEPAPVDDFGAEVPAHPEYMLTLDEAKALLEADDGDLVSVRSWAEFIGERSGYHYIDKTGRIPGAVFGNCGSDAYHMENYRNFDYTTREFSEIAGKWAEMGITPDKHIAFYCGTGWRGSEAFMNAYLMGWPNISVYDGGWYEWSSHPDTETATGVPENDVPA,failed
14,MSSQELVTLNVGGKIFTTRFSTIKQFPASRLARMLDGRDQEFKMVGGQIFVDRDGDLFSFILDFLRTHQLLLPTEFSDYLRLQREALFYELRSLVDLLNPYLLQPRPALVEVHFLSRNTQAFFRVFGSCSKTIEMLTGRITVFTEQPSAPTWNGNFFPPQMTLLPLPPQRPSYHDLVFQCGSDSTTDNQTGVRYVSIKPDNRKLANGTNVLGLLIDTLLKEGFHLVSTRTVSSEDKTECYSFERIKSPEVLITNETPKPETIIIPEQSQIKK,failed
15,MAANDRAAAPGKSGGSAGADGLMRASLSAVAPGTSLRDGLERVLRGNTGGLIVLGSDKTVESMCTGGFVLDVEFTATRLRELCKLDGGIVLSSDLSKILRAGVQLLPDPTIPTEETGTRHRTADRVSKQVGFPVVSVSQSMRLIALYVDGQRRVLEDSAAILSRANQALATLERYKLRLDEVAGTLSALEIEDLVTVRDVSAVAQRLEMVRRIATEIAEYVVELGTDGRLLALQLDELIAGVEPERELVVRDYVPEPTAKRSRTVDEALAELDKLSHAELLELSTVARALGYTGSPETLDSAVSPRGFRLLAKVPRLPGAIIDRLVEHFGGLQKLLAASVDDLQTVDGVGEARARSVREGLSRLAESSILERYV,not failed
16,MMWIPYNQGFHAGPKCLTVVFIYLLNMKVLRHIYRFLMELYGPQGWWPLLDRDTMTLRYHPGDYTPPSDDGDVFEVITGSILTQNTSWDSAASALRNLAAMDALKPHRILSLDDAELEAAIRCAGFYRQKVSYLREMAGFFISLEGSTPSRKELLKVRGVGPETADSVLLYAYRKPEFVVDAYTRRILTHLGLIAGDESYHRIKELFERSLEPDFRVFQEYHALIVRHGKSYYRGRVHGDGDPLEHHHHHH,failed
17,MIKRLKVNVIDLSSLVYLIFAVIPLFTFDLKGPYWMYVIIFIIFTISYTALAIFTEVLSTKMIYTFLILHYIGITYLVYSVGPATSLFFFFSSFILPYVLKVKMKSIAFLIFIVVMLINFILIYVADPLSLGFIAVMHIAILLITVGNFKQSETIKMKNALEEKNKHINVLIAEQERNRIGQDLHDTLGHVFASSSIKSELAIKLIDSDSEKAKLQMIEVNNISKESLNKVRSIVNDLKIQSFEEEVASMETLLKNANLNFEFFNAELAKGISPAKQAILAMILREAINNVLKHAHATSVTGSLTETQNDITLTIIDNGIGMDDLKEHDLKSIKERVALMNGSIEIQSNHGLCISIKISRGDA,failed
18,MNQPTSETRTVVVERELPHSPEKIWRALTQPHLIEAWLMKSDFEPVAGRTFSFHADWGSVDCTLLTIEPERVLSYTWAAYGLESVVTWTLTPTPGGTLLRMEQAGFRADQEQAYRGAQQGWVRFFDSLEQVVARADEDEEGRA,failed
19,MTKAIPWKINWQTMAFEYIGPQIEALLGWPQGSWKSVEDWATRMHPEDQEWVVNFCVKQSECGVDHEADYRALHRDGHYVWIRDVVHVVRDDSGEVEALIGFMFDISLEHHHHHH,not failed
20,MNANYVSKKPYIVTIACTKGGSAKSTNAANIGAFCADHGLRTLLIDTDTQPTLSSYYSLAKTAPGGIYEFLLQRDVEPSHIVSQTSIKNLDLIQSNDPSNNVSHMLRNAPDGSIRFSHLIKSINNYDVIVIDTRGTRDITVDMSVLAADILFCPILPQILSAKEFIRGTIGMYQDLQTFESFGFKLPPLKAIANGVDNTNDVKFVMQKLHTLFANTFDESKTLLDFSIPYHVAYREAVTYALPVYRHSAVEYPVMQQLCCLLLPQFKENFEKPMQRGLEHHHHHH,not failed
21,DIDTFYSKVHNIIGQLINAKNFFIAKYEKDSDTLSFSYYVDEKTSNLAKDFKPRKLSNRYSELVLRRRETVLLTYQEMMSLHLEGETKKPQDDIHSWLGVPLIYSGQLLGVMVLQSYYYKTTYNQQDAELLNFVSNHVSAAIKRRELAD,failed
